We go through one molecule from US20150218240A1 (SAMSUNG ELECTRONICS, published 2015).

This assay concerns the target T1, Cdk6 (Abcam's ab84717, recombinant full length Human Cdk6 (amino acids 1-326) with N-terminal His tag) (human, UniProt Q00534 1-326).
T1 construct: range 1-326; Bought reagent (Abcam ab84717), coated on the ELISA plate at 1 ug/ml; also called CDk6 protein; not shown: N-terminal His tag of the bought protein
Kind of assay: ELISA: Cdk6 coated on plate, p16 at 0-10 uM, detected with anti-p16 antibody and HRP secondary, A450. (In general: An ELISA detects its analyte on a solid surface through an enzyme-linked reagent.)

T1 sequence (Q00534 whole entry, the tested form may be a part): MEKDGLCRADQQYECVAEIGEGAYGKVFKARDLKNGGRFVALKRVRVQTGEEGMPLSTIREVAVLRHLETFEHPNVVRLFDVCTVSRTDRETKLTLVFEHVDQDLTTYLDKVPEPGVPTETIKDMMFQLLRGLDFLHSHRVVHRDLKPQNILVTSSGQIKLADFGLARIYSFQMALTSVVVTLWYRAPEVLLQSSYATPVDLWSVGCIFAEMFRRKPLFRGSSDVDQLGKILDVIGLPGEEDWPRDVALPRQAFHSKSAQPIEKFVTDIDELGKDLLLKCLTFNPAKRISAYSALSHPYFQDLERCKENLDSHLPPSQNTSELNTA

B1: human p16 protein variant (SEQ ID NO: 2; W15K, L37D, L65K, C72S, L78S, V106A, L113T) (other)
chain: MEPAAGSSMEPSADKLATAAARGRVEEVRALLEAGADPNAPNSYGRRPIQVMMMGSARVAELLLKHGAEPNSADPATSTRPVHDAAREGFLDTLVVLHRAGARLDARDAWGRTPVDLAEELGHRDVARYLRAAAGGTRGSNHARIDAAEGPSDIPD
notes: also called p16INK4a variant; mt p16
Consider B1, for which the binding result is recorded as “binds”.
